This assay deals with T1, complement factor H (human, UniProt P08603 19-1231, 125I-labelled (Iodobeads) in the blot and bacterial binding assays).
T1 construct: also called fH; FH
The experiment in a line: SPR (Biacore), GST:Hic39-261 captured on anti-GST antibody chip, fH as analyte, Langmuir 1:1 model, mean ± SD of three experiments. Background: In SPR one partner is held on a chip, and binding of the other changes the refractive index at the surface.

Broadly, the Kd is the concentration at which binding is half-saturated. In general, koff refers to the first-order rate constant of dissociation. For orientation: kon means a measure of how fast the partners come together. Read a high kon as faster complex formation.

T1 sequence (P08603 19-1231 limits assumed): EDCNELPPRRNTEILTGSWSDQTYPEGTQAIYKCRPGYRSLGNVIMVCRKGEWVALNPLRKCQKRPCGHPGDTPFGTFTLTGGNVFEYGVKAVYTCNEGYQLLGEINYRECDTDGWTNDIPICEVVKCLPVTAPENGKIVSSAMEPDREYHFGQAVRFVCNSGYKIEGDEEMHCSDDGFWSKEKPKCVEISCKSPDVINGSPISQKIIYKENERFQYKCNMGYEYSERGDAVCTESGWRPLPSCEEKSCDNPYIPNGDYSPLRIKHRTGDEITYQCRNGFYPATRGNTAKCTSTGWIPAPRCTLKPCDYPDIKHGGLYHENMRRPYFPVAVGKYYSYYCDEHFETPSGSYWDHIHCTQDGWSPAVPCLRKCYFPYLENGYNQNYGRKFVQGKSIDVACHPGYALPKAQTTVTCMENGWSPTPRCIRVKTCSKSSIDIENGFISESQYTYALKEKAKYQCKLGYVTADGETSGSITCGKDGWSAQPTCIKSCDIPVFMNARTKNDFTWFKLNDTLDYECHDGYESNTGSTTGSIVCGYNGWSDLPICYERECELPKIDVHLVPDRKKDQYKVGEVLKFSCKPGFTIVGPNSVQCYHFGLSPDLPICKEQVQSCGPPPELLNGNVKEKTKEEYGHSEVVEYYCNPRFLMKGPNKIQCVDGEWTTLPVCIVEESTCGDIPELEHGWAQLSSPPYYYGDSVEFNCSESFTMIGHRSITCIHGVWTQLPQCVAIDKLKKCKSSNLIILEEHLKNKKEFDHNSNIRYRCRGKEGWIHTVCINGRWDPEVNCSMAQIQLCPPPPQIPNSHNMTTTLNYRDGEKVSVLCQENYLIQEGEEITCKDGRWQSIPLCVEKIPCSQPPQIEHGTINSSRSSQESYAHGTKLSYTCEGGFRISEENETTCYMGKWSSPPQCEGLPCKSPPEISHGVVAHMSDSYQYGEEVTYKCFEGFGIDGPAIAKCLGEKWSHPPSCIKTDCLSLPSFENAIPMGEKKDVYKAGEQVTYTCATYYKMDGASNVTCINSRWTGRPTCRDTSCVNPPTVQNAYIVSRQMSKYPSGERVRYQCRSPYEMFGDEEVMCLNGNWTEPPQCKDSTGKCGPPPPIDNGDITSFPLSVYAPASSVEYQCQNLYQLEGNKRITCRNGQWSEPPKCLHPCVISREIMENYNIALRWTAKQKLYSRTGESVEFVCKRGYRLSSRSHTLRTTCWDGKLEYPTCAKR

B1: GST:Hic^39-261 fusion protein (other)
chain: EKEVTTQVATSSNKANKSQTEHMKAAKQVDEYIEKMLSEIQLDRRKHTQNVGLLTKLGAIKTEYLRGLSVSKEKSTAELPSEIKEKLTAAFEQFKKDTLKSGKKVAEAQKKAKDQKEAKQEIEALIVKHKGREIDLDRKKAKAAVTEHLKKLLNDIEKNLKKEQHTHTVELIKNLKDIEKTYLHKLDESTQKAQLQKLIAESQSKLDEAFSKFKNGLSSSSNS
notes: main band 54 kDa, partly degraded; Vector-derived residues after the EcoRI site, if any, are not described; also called fusion between GST and the NH2-terminal Hic region; not shown: glutathione S-transferase (GST) encoded by vector pGEX-5X-3 (Pharmacia Biotech); vector-encoded residues between GST and the BamHI cloning site of pGEX-5X-3
For B1, the Ka amounted to 5e+07 M⁻¹, the dissociation constant (Kd) amounted to 23 nM, the koff came to 0.00061 s⁻¹ and the kon was found to be 28000 M⁻¹ s⁻¹.
